Experiment [1] has as its target T1, recombinant hIL-18Rα extracellular domain (human, UniProt Q13478 22-329, biotin label (selection) or fluorescent probe (single-clone FACS), sites not given).
T1 construct: extracellular domain; also called hIL-18Rα ECD; hIL-18Rα-ECD
T1 sequence (looked up): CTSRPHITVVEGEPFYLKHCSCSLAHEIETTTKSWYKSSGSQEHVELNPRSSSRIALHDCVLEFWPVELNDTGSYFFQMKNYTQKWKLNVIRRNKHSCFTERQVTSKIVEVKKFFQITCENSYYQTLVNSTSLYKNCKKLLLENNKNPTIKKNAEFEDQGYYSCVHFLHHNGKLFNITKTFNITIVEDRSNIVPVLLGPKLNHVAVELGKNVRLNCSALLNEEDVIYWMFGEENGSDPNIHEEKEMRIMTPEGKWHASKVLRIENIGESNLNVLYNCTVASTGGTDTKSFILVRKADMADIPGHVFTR
Briefly: single-clone FACS, yeast display, 10 nM labelled hIL-18Rα ECD. An outline of the steps:
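Yeast clones displaying IL-18 variants (screening rounds 4 and 5), at equal density, incubated with 10 nM fluorescently labelled hIL-18Rα ECD, then washed. Fraction of fluorescence-positive binding cells per clone measured by flow cytometry.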

Experiment [2] has as its target T2, hIL-18Rα ECD-Fc fusion protein (human, UniProt Q13478 22-329).
T2 construct: extracellular domain; captured on Protein A sensor
T2 sequence (looked up): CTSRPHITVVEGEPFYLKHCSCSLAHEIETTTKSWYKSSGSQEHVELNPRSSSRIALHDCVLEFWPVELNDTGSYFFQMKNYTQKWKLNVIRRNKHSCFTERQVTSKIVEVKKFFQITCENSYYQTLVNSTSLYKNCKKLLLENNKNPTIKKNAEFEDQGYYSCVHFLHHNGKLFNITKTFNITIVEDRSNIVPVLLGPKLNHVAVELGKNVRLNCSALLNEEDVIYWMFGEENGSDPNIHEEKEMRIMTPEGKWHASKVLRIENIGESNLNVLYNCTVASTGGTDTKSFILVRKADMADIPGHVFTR
Briefly: BLI (Octet RED96), hIL-18Rα ECD-Fc on Protein A sensor. As to the method:
The affinities of IL-18 variant polypeptides for hIL-18Rα were assessed by Biolayer Interferometry (BLI) on Octet RED96 using Protein A sensor coated with hIL-18Rα ECD-Fc fusion protein, and WT hIL-18 was used as a control.

B1: IL-18 variant polypeptide M25 (ligand)
chain: YFPKLRSKLSVIRNLNDQVLFIDQGNRPLFEDMTDSDCRDNAPRTIFIISMYKLSTTRGMAVTISVKCEKISTLSCENKIISFKEMNPPDRIKDTKSDIIFFQRSVPGHDNKMQFESSSYEGYFLACEKERDLFKLILKKEDELGDRSIMFTVQNED
Regarding B1, the “% of fluorescence positive cells” value in experiment [1] was 1.41%. Further, in experiment [2], binding was characterised by a dissociation constant (Kd) of 0.0441 µM, the “Response (nm)” value amounted to 0.0798 nm, the koff (usually the rate constant with which the complex falls apart) turned out to be 0.0256 s⁻¹ and the kon (commonly the second-order rate constant of association) was determined as 581000 M⁻¹ s⁻¹.

B2: IL-18 variant polypeptide M30 (ligand)
chain: YFPKLLSKLSVIRNLNDQVLFIDQGNRPLFEDMTDSDCRDNAPRTIFIISMYKHSTVRGMAVTISVKCEKISTLSCENKIISFKEMNPPDSIKDTKSDIIFFQRSVPGHDNKMQFESSSYEGYFLACEKERDLFKLILKKEDELGDRSIMFTVQNED
Turning to B2, the “% of fluorescence positive cells” value in experiment [1] was 0.46%. Besides, in experiment [2], binding was put at a Kd of 0.0302 µM, the “Response (nm)” value came to 0.0275 nm, the koff is 0.0389 s⁻¹ and the kon stood at 1.29e+06 M⁻¹ s⁻¹.

B3: IL-18 variant polypeptide M27 (ligand)
chain: YFPKLRSKLSVIRNLNDQVLFIDQGNRPLFEDMTDSDCRDNAPRTIFIISMYKHSYTRGMAVTISVKCEKISTLSCENKIISFKEMNPPDVIKDTKSDIIFFQYSVPGHDNKMQFESSSYEGYFLACEKERDLFKLILKKEDELGDRSIMFTVQNED
Turning to B3, the “% of fluorescence positive cells” value in experiment [1] amounted to 77.7%. Besides, in experiment [2], the Kd (commonly a measure of binding affinity in units of concentration) came to 0.0459 µM, the “Response (nm)” value came to 0.0836 nm, the koff was found to be 0.00756 s⁻¹ and the kon worked out at 165000 M⁻¹ s⁻¹.

B4: IL-18 variant polypeptide M29 (ligand)
chain: YFPKLMSKLSVIRNLNDQVLFIDQGNRPLFEDMTDSDCRDNAPRTIFIISMYKFSDRRGMAVTISVKCEKISTLSCENKIISFKEMNPPDPIKDTKSDIIFFQRSVPGHDNKMQFESSSYEGYFLACEKERDLFKLILKKEDELGDRSIMFTVQNED
Take B4: in experiment [1], the “% of fluorescence positive cells” value is 0.18%. In experiment [2], the Kd amounted to 0.0839 µM, the “Response (nm)” value stood at 0.0323 nm, the koff came to 0.0612 s⁻¹ and the kon was 730000 M⁻¹ s⁻¹.

B5: IL-18 variant polypeptide M37 (ligand)
chain: YFPKLGSKLSVIRNLNDQVLFIDQGNRPLFEDMTDSDCRDNAPRTIFIISMYKQSVWRGMAVTISVKCEKISTLSCENKIISFKEMNPPDNIKDTKSDIIFFQRSVPGHDNKMQFESSSYEGYFLACEKERDLFKLILKKEDELGDRSIMFTVQNED
Regarding B5, the “% of fluorescence positive cells” value in experiment [1] was found to be 95.4%. In addition, in experiment [2], the Kd amounted to 0.0218 µM, the “Response (nm)” value was determined as 0.222 nm, the koff amounted to 0.00883 s⁻¹ and the kon was 404000 M⁻¹ s⁻¹.

B6: IL-18 variant polypeptide M33 (ligand)
chain: YFEKLHSKLSVIRNLNDQVLFIDQGNRPLFEDMTDSDCRDNAPRTIFIISMYKRSTHRGMAVTISVKCEKISTLSCENKIISFKEMNPPDNIKDTKSDIIFFQRSVPGHDNKMQFESSSYEGYFLACEKERDLFKLILKKEDELGDRSIMFTVQNED
With B6, the “% of fluorescence positive cells” value in experiment [1] was found to be 0.17%. In experiment [2], the Kd was determined as 0.595 µM, the “Response (nm)” value came to 0.0257 nm, the koff was 0.0957 s⁻¹ and the kon was found to be 161000 M⁻¹ s⁻¹.

B7: IL-18 variant polypeptide M39 (ligand)
chain: YFPKLRSKLSVIRNLNDQVLFIDQGNRPLFEDMTDSDCRDNAPRTIFIISMYKWSPGRGMAVTISVKCEKISTLSCENKIISFKEMNPPDVIKDTKSDIIFFQLSVPGHDNKMQFESSSYEGYFLACEKERDLFKLILKKEDELGDRSIMFTVQNED
As to B7, the “% of fluorescence positive cells” value in experiment [1] came to 76.5%. Also, in experiment [2], the Kd is 0.0206 µM, the “Response (nm)” value is 0.0605 nm, the koff is 0.0221 s⁻¹ and the kon amounted to 1.07e+06 M⁻¹ s⁻¹.

B8: IL-18 variant polypeptide M32 (ligand)
chain: YFPKLGSKLSVIRNLNDQVLFIDQGNRPLFEDMTDSDCRDNAPRTIFIISMYKSSSRRGMAVTISVKCEKISTLSCENKIISFKEMNPPDNIKDTKSDIIFFQRSVPGHDNKMQFESSSYEGYFLACEKERDLFKLILKKEDELGDRSIMFTVQNED
On to B8, for which, in experiment [1], the “% of fluorescence positive cells” value turned out to be 4.21%. In addition, in experiment [2], the Kd came out at 0.0173 µM, the “Response (nm)” value is 0.0381 nm, the koff stood at 0.0234 s⁻¹ and the kon is 1.36e+06 M⁻¹ s⁻¹.

B9: IL-18 variant polypeptide M26 (ligand)
chain: YFPKLRSKLSVIRNLNDQVLFIDQGNRPLFEDMTDSDCRDNAPRTIFIISMYKHSDKRGMAVTISVKCEKISTLSCENKIISFKEMNPPDVIKDTKSDIIFFQYSVPGHDNKMQFESSSYEGYFLACEKERDLFKLILKKEDELGDRSIMFTVQNED
Regarding B9, the “% of fluorescence positive cells” value in experiment [1] came out at 96.7%. For the same molecule, in experiment [2], the dissociation constant (Kd) is 0.0571 µM, the “Response (nm)” value came out at 0.0917 nm, the koff was found to be 0.0119 s⁻¹ and the kon was 207000 M⁻¹ s⁻¹.

B10: IL-18 variant polypeptide M35 (ligand)
chain: YFPKLRSKLSVIRNLNDQVLFIDQGNRPLFEDMTDSDCRDNAPRTIFIISMYKGSGARGMAVTISVKCEKISTLSCENKIISFKEMNPPDGIKDTKSDIIFFQRSVPGHDNKMQFESSSYEGYFLACEKERDLFKLILKKEDELGDRSIMFTVQNED
On to B10, for which the “% of fluorescence positive cells” value in experiment [1] turned out to be 92.9%. Besides, in experiment [2], the Kd is 0.0341 µM, the “Response (nm)” value was determined as 0.129 nm, the koff came out at 0.0156 s⁻¹ and the kon stood at 456000 M⁻¹ s⁻¹.

B11: IL-18 variant polypeptide M28 (ligand)
chain: YFPKLASKLSVIRNLNDQVLFIDQGNRPLFEDMTDSDCRDNAPRTIFIISMYKWSGGRGMAVTISVKCEKISTLSCENKIISFKEMNPPDVIKDTKSDIIFFQYSVPGHDNKMQFESSSYEGYFLACEKERDLFKLILKKEDELGDRSIMFTVQNED
With B11, the “% of fluorescence positive cells” value in experiment [1] turned out to be 83.4%. In experiment [2], the Kd worked out at 0.0304 µM, the “Response (nm)” value turned out to be 0.178 nm, the koff turned out to be 0.00966 s⁻¹ and the kon turned out to be 318000 M⁻¹ s⁻¹.

B12: IL-18 variant polypeptide M34 (ligand)
chain: YFPKLRSKLSVIRNLNDQVLFIDQGNRPLFEDMTDSDCRDNAPRTIFIISMYKHSRNRGMAVTISVKCEKISTLSCENKIISFKEMNPPDVIKDTKSDIIFFQESVPGHDNKMQFESSSYEGYFLACEKERDLFKLILKKEDELGDRSIMFTVQNED
On to B12, for which, in experiment [1], the “% of fluorescence positive cells” value is 87.5%. In experiment [2], the affinity, expressed as Kd, was 0.0328 µM; the “Response (nm)” value was found to be 0.084 nm; the koff was found to be 0.0166 s⁻¹; the kon was 505000 M⁻¹ s⁻¹.

B13: IL-18 variant polypeptide M38 (ligand)
chain: YFPKLSSKLSVIRNLNDQVLFIDQGNRPLFEDMTDSDCRDNAPRTIFIISMYKWSGARGMAVTISVKCEKISTLSCENKIISFKEMNPPDVIKDTKSDIIFFQISVPGHDNKMQFESSSYEGYFLACEKERDLFKLILKKEDELGDRSIMFTVQNED
For the molecule B13, in experiment [1], the “% of fluorescence positive cells” value was determined as 79.5%. In experiment [2], the Kd worked out at 0.12 µM, the “Response (nm)” value came out at 0.0307 nm, the koff worked out at 0.0334 s⁻¹ and the kon came out at 278000 M⁻¹ s⁻¹.

B14: IL-18 variant polypeptide M31 (ligand)
chain: YFPKLRSKLSVIRNLNDQVLFIDQGNRPLFEDMTDSDCRDNAPRTIFIISMYKHSIHRGMAVTISVKCEKISTLSCENKIISFKEMNPPDIIKDTKSDIIFFQYSVPGHDNKMQFESSSYEGYFLACEKERDLFKLILKKEDELGDRSIMFTVQNED
Turning to B14, the “% of fluorescence positive cells” value in experiment [1] is 69%. In experiment [2], the Kd is 0.0541 µM, the “Response (nm)” value stood at 0.0947 nm, the koff came to 0.0189 s⁻¹ and the kon was 349000 M⁻¹ s⁻¹.

The values are drawn from US20260092093A1 (TJ BIOPHARMA SHANGHAI, published 2026).
